± gives the uncertainty stated by the source.
Assay: self-splicing fitness, log relative to wild type (ln ratio); higher = more splicing; Tetrahymena group I intron in knt gene, E. coli kanamycin selection, DiMSum; sequences stand for … in CUCUCU…GGAGGGAAAAGUUAUCAGGCAUGCACCUGGUAGCUAGUCUUUAAACCAAUAGAUUGCAUCGGUUUAAAAGGCAAGACCGUCAAAUUGCGGGAAAGGGGUCAACAGCCGUUCAGUACCAAGUCUCAGGGGAAACUUUGAGAUGGCCUUGCAAAGGGUAUGGUAAUAAGCUGACGGACAUGGUCCUAACCACGCAGCCAAGUCCUAAGUCAACAGAUCUUCUGUUGAUAUGGAUGCAGUUCACAGACUAAAUGUCGGUCGGGGAAGAUGUAUUCUUCUCAUAAGAUAUAGUCGGACCUCUCCUUAAUGGGAGCUAGCGGAUGAAGUGAUGCAACACUGGAGCCGCUGGGAACUAAUUUGUAUGCGAAAGUAUAUUGAUUAGUUUUGGAGUACUCGUGGUCG
Outline: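 Pooled colonies went to amplicon sequencing on an Illumina HiSeq 2500 after six replicate transformations. The plates were LB agar with 100 μg/mL carbenicillin, 50 μM IPTG and 0.2% rhamnose, with or without 25 μg/mL kanamycin, incubated overnight at 37°C or 30°C. The E. coli BL21(DE3) library had all eight P1ex-region intron nucleotides randomised, the intron placed in the knt kanamycin-resistance gene on pET-22b(+). DiMSum fitness is the error-weighted combination of replicate fold changes, kanamycin against none, normalised to wild type.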

| Sequence | self-splicing fitness (ln) (30 °C) | self-splicing fitness (ln) (37 °C) |
| --- | --- | --- |
| CUAAAGCAAUAUUACGCCGU | -3.75 ± 0.27 | -2.39 ± 0.25 |
| CCACAGCAAUAUUACGGAAC | -3.75 ± 0.24 | -2.47 ± 0.23 |
| GGGGAGCAAUAUUACGCAAG | -3.34 ± 0.26 | -1.28 ± 0.2 |
| GCAAAGCAAUAUUACGCCUG | -2.21 ± 0.1 | -1.12 ± 0.12 |
| AUGCAGCAAUAUUACGGUAU | -4.16 ± 0.27 | -1.42 ± 0.14 |
| UUUGAGCAAUAUUACGCUAA | -1.08 ± 0.41 | – |
| AGGUAGCAAUAUUACGCUAG | -4.002 ± 0.038 | -2.89 ± 0.046 |
| AUGUAGCAAUAUUACGUCUU | -1.62 ± 0.13 | -0.0792 ± 0.13 |
| UCUCAGCAAUAUUACGAUCU | -1.68 ± 0.14 | -2 ± 0.2 |
| GUUAAGCAAUAUUACGCCUC | -1.41 ± 0.25 | 0.196 ± 0.31 |
| GCUAAGCAAUAUUACGUCAU | -1.7 ± 0.095 | 0.727 ± 0.12 |
| GCGAAGCAAUAUUACGUCUG | -1.68 ± 0.088 | -1.81 ± 0.15 |
| UGGCAGCAAUAUUACGCAUC | -1.93 ± 0.18 | -1.65 ± 0.16 |
| UUACAGCAAUAUUACGCGCU | -2.93 ± 0.37 | -2.04 ± 0.31 |
| CCGAAGCAAUAUUACGGCGG | -3.48 ± 0.15 | -2.15 ± 0.17 |
| CGUGAGCAAUAUUACGGAGC | -2.97 ± 0.36 | – |
| GUCCAGCAAUAUUACGUCUA | -0.899 ± 0.11 | -0.668 ± 0.12 |
| UUGGAGCAAUAUUACGGGAA | -3.64 ± 0.38 | -0.82 ± 0.17 |
| CAAUAGCAAUAUUACGACCU | -3.2 ± 0.24 | -0.203 ± 0.2 |
| CGUUAGCAAUAUUACGUCUG | -0.914 ± 0.11 | 0.164 ± 0.13 |
| GAUUAGCAAUAUUACGACAA | -0.938 ± 0.17 | -0.154 ± 0.14 |
| CCCCAGCAAUAUUACGUUAU | -4.15 ± 0.15 | -3.29 ± 0.22 |
| CCCUAGCAAUAUUACGUGCA | -3.99 ± 0.18 | -2.92 ± 0.14 |
| UUAUAGCAAUAUUACGCGCG | 0.0634 ± 0.16 | -0.475 ± 0.18 |
